Tests used:
人PD-L1胞外区-6His [1] = molecular target: T1, 人PD-L1胞外区-6His (human, UniProt Q9NZQ7 19-238); experiment: AlphaLISA competition: antibody titrated against binding of His-tagged PD-L1 to biotinylated PD-1
T1 construct: also called PD-L1-6His; 人PD-L1胞外结构区-6His蛋白

人PD-L1胞外区-6His [2] = molecular target: T1, 人PD-L1胞外区-6His; experiment: SPR (Biacore), multi-cycle kinetics; antibody captured on Protein A chip, PD-L1 as analyte from 40 nM in 2-fold dilutions, 6 concentrations

T1 sequence (Q9NZQ7 other isoform, or with tags, fused parts or gaps): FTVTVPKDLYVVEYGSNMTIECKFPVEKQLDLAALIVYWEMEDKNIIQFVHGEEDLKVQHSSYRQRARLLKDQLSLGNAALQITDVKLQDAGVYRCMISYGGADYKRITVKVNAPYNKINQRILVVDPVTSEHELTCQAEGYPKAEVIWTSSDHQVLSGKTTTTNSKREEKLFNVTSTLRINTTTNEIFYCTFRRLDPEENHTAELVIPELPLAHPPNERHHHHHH

B1: 抗PD-L1全人源单克隆抗体 (antibody, V domains shown)
VH: QVQLVQSGGELKRPGSSVKVSCKASGGTFSSYAISWVRQAPGQGLEWMGRIIPIFGTANYAQKFQGRVTITADESTSTAYMELSSLRSEDTAVYYCASSSYRHFAFDIWGQGTTVTVSS
VL: QSALTQPASVSGSPGQSITISCTGTSSDVGSYNLVSWYQQHPGKAPKLMIYEVTKRPSGVSNRFSGSKSGNTASLTISGLQAEDEADYYCSSYAGSNNLVFGGGTKVTVL
notes: also called 抗PD-L1抗体; 抗PD-L1全长抗体
IC50 (人PD-L1胞外区-6His [1]): 0.0372 µg/mL | Kd (人PD-L1胞外区-6His [2]): 7.1 nM

Source: patent publication CN110156895A (SHANGHAI JIABEI BIOMEDICAL TECH CO LTD, dated 2019)
